Results on 62 molecules are retold here after patent US20260274955A1 (JANUX THERAPEUTICS, published 2026).

In this assay the target is T1, Anti-CD28 Fab (SEQ ID NOs: 202, 203).
T1 construct: biotinylated and captured on neutravidin coated plates in the phage ELISA
T1 sequence (VH, as listed by the source, chain 1 of 2): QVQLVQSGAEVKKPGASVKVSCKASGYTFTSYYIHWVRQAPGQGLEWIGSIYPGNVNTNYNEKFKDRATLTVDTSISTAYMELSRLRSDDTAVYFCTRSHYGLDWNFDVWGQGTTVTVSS
T1 sequence (VL, as listed by the source, chain 2 of 2): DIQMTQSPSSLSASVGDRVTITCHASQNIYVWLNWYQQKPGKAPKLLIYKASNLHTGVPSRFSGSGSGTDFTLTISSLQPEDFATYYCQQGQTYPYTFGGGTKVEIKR
In words: phage binding ELISA, Fab on plate.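 Also: clonal phage supernatant ELISA, wells preincubated with CD28 antigen or blocking buffer only, then bound phage detected using HRP-linked anti-M13 antibody.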 For orientation: In an ELISA, binding on a coated surface is turned into a signal by an enzyme label.
Description: After panning, phage infected bacteria were plated out and colonies picked into 96 well blocks. Clonal phage was then amplified and separated from bacterial cells via centrifugation.
Clonal phage were harvested as crude supernatants and screened via standard ELISAs. […] Prior to the addition of clonal phage, wells were incubated with blocking buffer and CD28 antigen or blocking buffer alone. Without washing or aspirating, clonal phage supernatants were then added to the wells and incubated for a short time. Wells were then washed followed by detection of bound phage using a horse radish conjugated anti-M13 antibody. Clonal phage of interest were then sent for sequence analysis.
As to WCTAGFSYKLSICL [Phage-1060], the “Anti-CD28 Fab (SEQ ID NOs: 202, 203) signal” value (“Anti-CD28 Fab” below) was found to be 1.63. On to TCAAGATYPWPSCL [Phage-1038], for which the “Anti-CD28 Fab” value worked out at 1.73. As for TCAAGATWPWPSCL [Phage-1065], the “Anti-CD28 Fab” value came to 1.61. As for SCAAGAPYPWPECL [Phage-1071], the “Anti-CD28 Fab” value was determined as 1.59. Regarding TCAAGANYPWPLCL [Phage-1027], the “Anti-CD28 Fab” value worked out at 1.75. As for GCAAGANYPWPLCL [Phage-1069], the figure is 1.59. As for TCSAGFSYKWPWCL [Phage-1080], the figure is 1.57; as for TCAAGATYPWPECM [Phage-1082], 1.57; as for TCSAGAAYAWPYCL [Phage-1072], 1.59.

In the case of TCAAGAHYPWPYCL [Phage-1020], the “Anti-CD28 Fab” value was 1.77. Consider LCAAGFNYPWPLCL [Phage-1083], for which the “Anti-CD28 Fab” value is 1.57. As for SCSAVFSYAWPTCL [Phage-1064], the figure is 1.61; as for PCAAGAMWPWPVCL [Phage-986], 1.95; as for DCWGDAPYPWRVCL [Phage-1059], 1.64. For TCSAGFSLQLSICL [Phage-1022], the “Anti-CD28 Fab” value was found to be 1.77.

As for TCSAGANYEWPWCF [Phage-1062], the “Anti-CD28 Fab” value was determined as 1.62.

With TCAAGAHYAWPECF [Phage-1040], the “Anti-CD28 Fab” value is 1.72. As for TCAAGAHYEWPMCY [Phage-1063], the figure is 1.61. Regarding TCAAGAYYAWPMCL [Phage-1070], the “Anti-CD28 Fab” value is 1.59. For MCAAGAMYAWPTCL [Phage-1028], the “Anti-CD28 Fab” value was 1.75. With TCAAGAVWEWPMCF [Phage-1026] the figure was 1.76; with MCSAGATYPWPMCL [Phage-1037], 1.73; with MCSAGATYPWPYCL [Phage-1057], 1.64.

Consider TCAAGAHWIWPWCE [Phage-1066], for which the “Anti-CD28 Fab” value worked out at 1.61. Turning to TCAAGAVWGWPLCF [Phage-1039], the “Anti-CD28 Fab” value was found to be 1.73.

Take LCTAGLAYNWPTCL [Phage-1024]: the “Anti-CD28 Fab” value was 1.77.

MCTAGATYPWPACL [Phage-1084]: the “Anti-CD28 Fab” value worked out at 1.56. As for WCAAGATWPWPLCI [Phage-1042], the figure is 1.7; as for TCSAGATYSWPFCF [Phage-1087], 1.55.

Regarding SCAAGASYSWPACF [Phage-1016], the “Anti-CD28 Fab” value was determined as 1.79.

TCAAGASYQWPLCF [Phage-1015]: the “Anti-CD28 Fab” value is 1.79.

Take TCAAGATYEWPTCL [Phage-983]: the “Anti-CD28 Fab” value stood at 1.96.

LCAEGFDYSWPMCL [Phage-1086]: the “Anti-CD28 Fab” value came out at 1.55. With SCKAGAPYYWPGCF [Phage-1088], the “Anti-CD28 Fab” value turned out to be 1.54.

In the case of SCSAGAAWPWPWCL [Phage-1085], the “Anti-CD28 Fab” value is 1.55. With TCTAVFPYEWPRCL [Phage-1078] the figure was 1.57; with LCAAGAAYPWPMCL [Phage-1073], 1.59; with SCAAVFPYPWPPCF [Phage-1030], 1.75.

For WCAAGASYPWPWCL [Phage-1077], the “Anti-CD28 Fab” value worked out at 1.58.

For the molecule LCSAGATYPWPWCM [Phage-1058], the “Anti-CD28 Fab” value stood at 1.64.

Take WCAEFFNYHWPLCF [Phage-1021]: the “Anti-CD28 Fab” value was found to be 1.77.

With TCAAGAMWTWPECL [Phage-1081], the “Anti-CD28 Fab” value turned out to be 1.57. With MCTAGALYNWPTCL [Phage-1019] the figure was 1.78; with TCSAGAMYPWPWCV [Phage-1031], 1.75; with TCAAGAAWPWPHCL [Phage-1035], 1.73.

In the case of SCAAGATFHWPMCF [Phage-1079], the “Anti-CD28 Fab” value was 1.57. As for TCAAGAGWQWPMCF [Phage-1067], the figure is 1.6; as for SCAAGAQYGWPMCL [Phage-1076], 1.59; as for YCSAGAQWPWPICL [Phage-1014], 1.79. As for GCAAGFHYPWPLCL [Phage-1033], the figure is 1.74; as for LCEEFFHYSWPVCL [Phage-1034], 1.74; as for WCAAVFSYSWPLCL [Phage-1032], 1.75. As for RCRAGFSYNWPYCM [Phage-1041], the figure is 1.72; as for TCAAGASFPWPWCL [Phage-1029], 1.75. Regarding SCSAGFHYPWPICL [Phage-1017], the “Anti-CD28 Fab” value came out at 1.79.

Regarding LCKPGVPYQWPTCL [Phage-1018], the “Anti-CD28 Fab” value was 1.78. On to SCAAGASYPWPQCL [Phage-1023], for which the “Anti-CD28 Fab” value stood at 1.77. Take LCSAGAMYQWPTCL [Phage-1061]: the “Anti-CD28 Fab” value is 1.63. With LCSAGAMWQWPTCL [Phage-1097], the “Anti-CD28 Fab” value stood at 1.51.

As to GCAAGAHYPWPFCL [Phage-1025], the “Anti-CD28 Fab” value was determined as 1.76. Regarding SCAAGATYEWPRCL [Phage-1068], the “Anti-CD28 Fab” value was 1.6. With SCAAGATYEWPICL [Phage-1074] the figure was 1.59.
